The RNAGym collection of RNA variant scans (doi:10.1073/pnas.2313332121)

B1: TPR t1 (parent)
chain: GACCAAUCUGCCCUCAGAGCUCGAGAACAUCUUCGGAUGCAGAGGAGGCAGGCUUCGGUGGCGCGAUAGCGCCAACGUCCUCAACCUCCAAUGCAUCCCACCACAUGAUGAUGCCUGAAGAGCCUUGGUUUUUUG

Variants of: B1
Test: polymerase ribozyme fitness, log enrichment relative to wild type (log ratio); higher = more active; in vitro selection for triplet polymerase activity
In short: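 Libraries of mutants in each subunit of a heterodimeric triplet polymerase ribozyme were generated by PCR and transcribed. In triplicate, each went through one in vitro selection round: annealing with biotinylated primer, partner subunit and triplets; frozen incubation at −7 °C; gel excision of extended constructs; streptavidin-bead capture; RT-PCR. Fitness, taken from Illumina sequencing of input and output libraries, is the logarithm of a genotype's enrichment over wild-type enrichment, averaged across replicates with inverse-variance weights. The logarithm is base 2, and genotypes needed ≥10 input reads and ≥1 read per output to be kept.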

Compared with GACCAAUCUGCCCUCAGAGCUCGAGAACAUCUUCGGAUGCAGAGGAGACAGGCUUCGGAGGCGCGAUAGCGCCAACGUCCUCAACCUCCAAUGCAUCCCACCACAUGAUGAUGCCUGAAGAGCCUUGGUUUUUUG, GACCAAUCUGCCCUCAGAGCUCGAGAACAUCUUCGGAUGCAGAGGAGACAGGCUUCGGAGGCGCGAUAGCGGCAACGUCCUCAACCUCCAAUGCAUCCCACCACAUGAUGAUGCCUGAAUAGCCUUGGUUUUUUA is lower in “polymerase ribozyme fitness (log ratio)” value: -0.703 for the first, -2.76 for the second.

Going from GACCAAUCUGCCCUCAGAGCUCGAGAACAUCUUCGGAUGCAGAGGAGACAGGCUUCGGAGGCGCGAUACCGCCAACGUCCUCAUCCUCCAAUGCAUCCCACCACAUGAUGAUGCCUGCAGAGCCUUGGUUUUUUG to GACCAAUCUGCCCUCAGAGCUCGAGAACAUCUUCGGAUGCAGAGGAGACAGGCUUCGGUGGCGCGAUAGCGCCAACGUCCUCAACCACCAAUGCAUCCCACCACAUGAUGAUGCCUGAACAGCGUUGGUUUUUUG, the “polymerase ribozyme fitness (log ratio)” value rises from -3.45 to 0.521.

First: GACCAAUCUGCCCUCAGAGCUCGAGAACAUCUUCGGAUGCAGAGGAGACAGGCUUCGGUGGCGCGAUAGCGCCAACGUCCUCAACCACCAAUGCAACCCACCACAUGAUGAUGCCUGAAGAGCCUUGGUUUUUUG
Second: GACCAAUCUGCCCUCAGAGCUCGAGAACAUCUUCGGAUGCAGAGGAGCCAGGCUUCGGUGGCGCGAUAGCGCCCACGUCCUCAACCUCCAAUGCAUCCCACCACAUGAUGAUGCCUGAAGAGCCUUGGUUUUUUG
The “polymerase ribozyme fitness (log ratio)” value of the first is lower: -1.88 for the first, -0.603 for the second.

Going from GACCAAUCUGCCCUCAGAGCUCGAGAACAUCUUCGGAUGCAGAGGAGCCAGGCUUCGGUGGCGCGAUAGCGCCAGCGUCCUCAACCUCCAAUGCAUCCCACCACAUGAUGAUGCCUGAAGAGCCUUGGUUUUUUG to GACCAAUCUGCCCUCAGAGCUCGAGAACAUCUUCGGAUGCAGAGGAGCCAGGCUUCGGUGGCGCGAUAGCGCCAACGUCCUCAACCUCCACGGCAUCCCACCACAUGAUGAUGCCUGAAAAGCUUUGGUCUUUUG, the “polymerase ribozyme fitness (log ratio)” value falls from -0.575 to -1.63.

Going from GACCAAUCUGCCCUCAGAGCUCGAGAACAUCUUCGGAUGCAGAGGAGCAAGGCUUCGGUGGCGCGAUAGCGCCAACGUCCUCAACCUUCAAUGCGUCCCACCACAUGAUGAUGCCUGAAGAGCCUUGGUUUUUUG to GACCAAUCUGCCCUCAGAGCUCGAGAACAUCUUCGGAUGCAGAGGAGCGAGGCUUCGGUGGCGCGAUAGCGCCAACGUCCUCAUCCUCCAAUGCAUCCCACCACAUGAUGAUGCCUGAAGAGCUUUGGUUUUUUG, the “polymerase ribozyme fitness (log ratio)” value falls from -0.72 to -1.8.

Going from GACCAAUCUGCCCUCAGAGCUCGAGAACAUCUUCGGAUGCAGAGGAGCGAGGCCUCGGUGGCGCGAUAGCGCCAACGUCCUCAACCUCCAAUGCCUCCCACCACAUGAUGAUGCCUAAAGAGCCUUGGUUUUUUG to GACCAAUCUGCCCUCAGAGCUCGAGAACAUCUUCGGAUGCAGAGGAGCUAGGCUUCGGAGGCGCGAUAGCGCCAACGUCCUCAACCUCCAAUGCAUCCCACCACAUGAUGAUGCCUGAAGAGCCUUGGUUUUUUG, the “polymerase ribozyme fitness (log ratio)” value rises from -2.24 to -1.34.

Compared with GACCAAUCUGCCCUCAGAGCUCGAGAACAUCUUCGGAUGCAGAGGAGCUAGGCUUCGGUGGCGCGAUAGCGCCAACGUCCUCAACCUCCAAUGCAUCCCACCACAGGAUGAUGCCUGAAGAGCCUUGGUUUUUUG, GACCAAUCUGCCCUCAGAGCUCGAGAACAUCUUCGGAUGCAGAGGAGCCAGGCUUUGGUGGCGCGAUAGCGCCAACGUCCUCAAUCUCCAAUGCAUCCCACCACAUGAUGAUGCCUGAAGAGCCUGGGUUUUUUG is higher in “polymerase ribozyme fitness (log ratio)” value: -2.77 for the first, -2.57 for the second.

Compared with GACCAAUCUGCCCUCAGAGCUCGAGAACAUCUUCGGAUGCAGAGGAGCCAGGCUUUGGUGGCGCGAUAGCGCCAACAUCCUCAACCUCCAAUGCAUCCCACCACAUGAUAAUGCCUGAAGAGCCUUGGUUUUUUG, GACCAAUCUGCCCUCAGAGCUCGAGAACAUCUUCGGAUGCAGAGGAGCCAGGCUUCGGUGGAUCGAUAGCGCCAACGUCCUCAACCUCCAAUGCAUCCCACCACAUGAUGAUGCCUGAAGGGCCUUGGUUUUUUG is lower in “polymerase ribozyme fitness (log ratio)” value: -2.29 for the first, -4.74 for the second.

Going from GACCAAUCUGCCCUCAGAGCUCGAGAACAUCUUCGGAUGCAGAGGAGCCAGGCUUCGGUGGAGCUAUAGCGCCAACGCCCUCAACCUCCAAUGCAUCCCACCACAUGAUGAUGCCUGAAGAGCCUUGGUCUUUUG to GACCAAUCUGCCCUCAGAGCUCGAGAACAUCUUCGGAUGCAGAGGAGCCAGGCUUCGGUGGUGCGAUAGCGCCAACGUCCUCAACCGCCAAUGCAUCCCACCACAUGAUCAUGCCAGAAGAGCCUUGGUUUUUUG, the “polymerase ribozyme fitness (log ratio)” value falls from -4.95 to -6.41.

Compared with GACCAAUCUGCCCUCAGAGCUCGAGAACAUCUUCGGAUGCAGAGGAGCCAGGCUUCGGUGGCGCGAUAGCGUCAACGUCCUCAACCUCCGAUGCAUCCCACCACAUGAUGAUGCCUGAAGAGCCUUGGUUUAUUG, GACCAAUCUGCCCUCAGAGCUCGAGAACAUCUUCGGAUGCAGAGGAGCCAGGCUUCGGUGGCGCGAUAGCGCCAACGUGCUCAACCUCCAAUGCAUCCCACCACAUGAUGAUGCCUGAAGAGCCUUGGUUUUUUG is lower in “polymerase ribozyme fitness (log ratio)” value: -0.935 for the first, -4.27 for the second.

In the case of GACCAAUCUGCCCUCAGAGCUCGAGAACAUCUUCGGAUGCAGAGGAGCCAGGCUUCGGUGGCGCGAUAGCGCCAACGUUCUCAACCUCCAAUGCAUCCCAACACAUGAUGAUGCCUGAAGAGCCUUGGUUUUUUG, the “polymerase ribozyme fitness (log ratio)” value is reported as -1.57.
